One may read the EC50 as the concentration needed to bring the measured effect to its halfway point.

For test [1], the target named is T1, human TROP-2 (hTROP-2) endogenously expressed on the cell surface of human cancer cell lines (human, UniProt P09758 27-323).
T1 construct: also called TACSTD2; PK-59 cells
T1 sequence: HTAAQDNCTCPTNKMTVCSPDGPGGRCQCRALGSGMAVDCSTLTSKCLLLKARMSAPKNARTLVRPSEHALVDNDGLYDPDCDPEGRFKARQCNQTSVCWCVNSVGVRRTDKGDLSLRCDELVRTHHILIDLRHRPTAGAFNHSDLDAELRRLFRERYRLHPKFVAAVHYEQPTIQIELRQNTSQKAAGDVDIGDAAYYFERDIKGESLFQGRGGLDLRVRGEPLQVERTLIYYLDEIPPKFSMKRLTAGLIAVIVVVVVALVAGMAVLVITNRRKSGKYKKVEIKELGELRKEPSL
The test can be described thus: FACS on PK-59 cells, 0.1 µg antibody. On the procedure:
(§1) Cancer cells were removed from a culture dish by a trypsin treatment, and a cell suspension was then prepared (cell density: 2×10⁶ cells/mL). An anti-hTROP-2 monoclonal antibody (0.1 μg) was added to 100 μL of the cell suspension, and they were then reacted at 4° C. for 20 minutes. The reaction solution was washed with PBS, and it was then reacted with PE-labeled anti-mouse IgG (BD Biosciences Pharmingen) (0.1 μg) (at 4° C. for 30 minutes). Thereafter, the resultant was analyzed by FACSCalibur (Becton, Dickinson and Company).
(§2) Subsequently, the reactivity of the generated anti-hTROP-2 monoclonal antibodies with human cancer cell lines (in which an hTROP-2 protein was endogenously expressed on the cell surface) was examined by FACS analysis.

In test [2] the target is T1, human TROP-2 (hTROP-2) endogenously …. The test can be described thus: FACS on BxPC-3 cells, 0.1 µg antibody. Here is the method: as §1, §2
Test [3] has as its target T2, mouse TROP-2 protein transiently expressed in CHO-K1 cells (mouse, UniProt Q8BGV3 25-317).
T2 construct: whole, on cells
T2 sequence (looked up): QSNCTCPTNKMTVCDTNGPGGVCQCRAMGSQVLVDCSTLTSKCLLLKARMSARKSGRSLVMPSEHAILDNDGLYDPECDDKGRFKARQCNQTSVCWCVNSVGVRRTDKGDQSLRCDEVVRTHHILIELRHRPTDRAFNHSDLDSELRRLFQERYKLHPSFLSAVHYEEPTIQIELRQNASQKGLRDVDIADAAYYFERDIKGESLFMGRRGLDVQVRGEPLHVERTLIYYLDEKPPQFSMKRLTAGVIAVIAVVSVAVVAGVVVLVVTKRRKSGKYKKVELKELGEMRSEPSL
The test can be described thus: FACS on CHO-K1 cells transiently expressing mouse TROP-2. From the text: (§3) Specifically, each of an expression vector (mouse TROP-2-pcDNA3.1(+), furnished by the Institute of Molecular and Cellular Biosciences, the University of Tokyo) comprising the full-length cDNA of a mouse TROP-2 gene (GenBank accession No. NM_020047, Y08830), and an expression vector (pcDNA3.1-hEpCAM-myc/His) comprising the full-length cDNA of a human TROP-1/EpCAM gene (GenBank accession No. NM_002354), was transiently introduced into CHO-K1 cells, using Lipofectamine2000 reagent (Invitrogen). Thereafter, 24 to 48 hours later, the cells were removed from a culture dish by treating them with trypsin, and a cell suspension was then prepared. The thus prepared cell suspension was successively reacted with the produced anti-hTROP-2 monoclonal antibody (0.1 μg) and with PE-labeled anti-mouse IgG, and it was then analyzed by FACSCalibur.

Test [4] concerns the target T3, human TROP-1/EpCAM protein transiently expressed in CHO-K1 cells (human, UniProt P16422 24-314).
T3 construct: whole, on cells; also called human EpCAM/TROP-1; hEpCAM; not shown: C-terminal myc/His tag from pcDNA3.1-hEpCAM-myc/His
T3 sequence (looked up): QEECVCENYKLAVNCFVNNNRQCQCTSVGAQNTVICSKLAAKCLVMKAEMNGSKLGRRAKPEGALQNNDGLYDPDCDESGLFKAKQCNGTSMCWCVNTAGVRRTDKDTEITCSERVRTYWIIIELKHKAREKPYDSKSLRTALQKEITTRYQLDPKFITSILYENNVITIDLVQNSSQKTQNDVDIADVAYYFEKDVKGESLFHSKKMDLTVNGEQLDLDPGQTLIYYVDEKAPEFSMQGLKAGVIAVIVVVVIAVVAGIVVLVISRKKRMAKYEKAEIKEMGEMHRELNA
The test can be described thus: FACS on CHO-K1 cells transiently expressing human EpCAM/TROP-1.
Description: as §3

For test [5], the target named is T4, recombinant protein of the hTROP-2 extracellular region (human, UniProt P09758 27-263).
T4 construct: produced with baculovirus, purified on Ni Sepharose; also called hTROP-2 EC; hTROP-2-EC-His; not shown: C-terminal myc-His tag from pcDNA4/myc-His A
T4 sequence: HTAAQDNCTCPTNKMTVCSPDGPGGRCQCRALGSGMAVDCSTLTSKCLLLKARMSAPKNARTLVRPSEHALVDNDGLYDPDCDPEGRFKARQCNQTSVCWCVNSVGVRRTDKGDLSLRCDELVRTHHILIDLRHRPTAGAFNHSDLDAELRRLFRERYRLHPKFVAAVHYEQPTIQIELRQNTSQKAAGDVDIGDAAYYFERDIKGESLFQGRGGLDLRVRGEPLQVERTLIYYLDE
The test can be described thus: antigen-coated ELISA, plate coated with 0.5 µg/ml hTROP-2 extracellular region. Here is the method:
(§4) Furthermore, antigen affinity was also examined by an ELISA method. ELISA was carried out using an ELISA plate which was coated with the recombinant protein of the hTROP-2 extracellular region as described in Example 3. Specifically, a 96-well plate (BD FALCON) was coated with a 50 μl/well recombinant protein of a hTROP-2 extracellular region that had been diluted with PBS to 0.5 μg/ml (at 4° C. overnight). Thereafter, the resultant was washed with a washing buffer (PBS containing 0.05% Tween 20), and a blocking buffer (PBS containing 2% skim milk and 0.05% Tween 20) was then added thereto (200 μl/well) to block it (at room temperature for 1 hour). The resultant was washed with a washing buffer. […] The obtained dilution samples were each added in an amount of 50 μl/well to the above-described ELISA plate (at room temperature for 2 hours). […] After the mixture had been washed with a washing buffer, a TMB (3,3′,5,5′-tetramethylbenzidine: SIGMA) substrate solution was added (50 μl/well) to the resultant to carry out a color reaction. Then, 1 M sulfuric acid (25 μl/well) was added to the reaction product to terminate the reaction. Using Microplate reader Model 550 (BioRad), an absorbance at 450 nm was measured with an absorbance at 655 nm used as a reference.
Background: ELISA stands for enzyme-linked immunosorbent assay.

For test [6], the target named is T5, recombinant hTACSTD2-Fc-His protein (Creative BioMart) (human, UniProt P09758 27-274, limits assumed).
T5 construct: bought protein; also called hTROP-2 (low-density antigen-coated ELISA); not shown: Fc part of the bought fusion protein; not described; His tag
T5 sequence: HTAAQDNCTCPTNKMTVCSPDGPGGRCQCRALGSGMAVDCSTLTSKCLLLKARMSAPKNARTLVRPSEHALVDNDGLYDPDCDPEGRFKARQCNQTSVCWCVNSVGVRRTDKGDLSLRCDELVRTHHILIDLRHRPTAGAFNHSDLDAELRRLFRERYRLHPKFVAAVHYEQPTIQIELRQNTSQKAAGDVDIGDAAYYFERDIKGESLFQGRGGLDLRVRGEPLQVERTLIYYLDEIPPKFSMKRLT
The test can be described thus: low-density antigen-coated ELISA, plate coated with 0.1 µg/mL hTACSTD2-Fc-His. Here is the method: as §4, with “Specifically, a 96-well plate (BD FALCON) was coated with a 50 μl/well recombinant protein of a hTROP-2 extracellular region that had been diluted with PBS to 0.5 μg/ml (at 4° C. overnight).” left out

B1: anti-hTROP-2 monoclonal antibody clone K5-116-2-1 (antibody, mouse IgG2a, V domains shown)
VH: QVQLQQPGAELVRPGASVKLSCKASGYTFTSYWITWVKQRPGQGLEWIGNIYPSDSYTNYNQKFRDKATLTVDKSSSTAYMQLSSPTSEDSAVYYCSALFDYWGQGTTLTVSS
VL: DILLTQSPAILSVSPGERVSFSCRASQSIGTSIHWYQQRTNGSPRLLIKYASESISGIPSRFSGSGSGTDFILSINSVESEDIADYYCQQSNSWPFTFGSGTKLEIK
notes: mouse IgG2a, hybridoma FERM BP-11253
Turning to B1, the results for the “mean fluorescence intensity, times that with PE-labeled anti-mouse IgG alone” value in test [1] and in test [2] were 122 times and 121 times, respectively. Besides, the binding result in test [3] and in test [4] was “no binding (tested: 0.1 µg antibody)” throughout.

B2: anti-hTROP-2 monoclonal antibody clone K5-107 (antibody, mouse IgG1, V domains shown)
VH: QVQLQQPGSELVRPGASVKLSCKASGYTFTSYWMHWVKQRHGQGLEWIGNIYPGGGYTNYDEKFKSKGTLTVDTSSSTAYMHLSSLTSEDSAVYYCTRSSVFDYWGQGTTLTVSS
VL: DILLTQSPAILSVSPGERVSFSCRASQNIGTSIHWFQQRTNGSPRLLIKYASESISGIPSRFSGSGSGTDFTLSINSVESEDIADYYCQQSNSWPFTFGSGTKLEIK
notes: mouse IgG1, hybridoma FERM BP-11252
As to B2, the binding result in test [3] and in test [4] was “no binding (tested: 0.1 µg antibody)” throughout.

B3: humanized T6-16 antibody HuT6-16-1 (antibody, V domains shown)
VH: QVQLVQSGAEVKKPGASVKVSCKASGYTFTDYNMHWVRQAPGQGLEWIGYIYPYNGGTGYNQRFKSRATMTVDKSTSTAYMELRSLRSDDTAVYYCAREDYGSSPSYAMDYWGQGTMVTVSS
VL: DIVMTQSPLSLPVTPGEPASISCRSSQSLVHGNGNTYLHWYLQKPGQSPQLLIYKVSNRFSGVPDRFSGSGSGTDFTLKISRVEAEDVGVYYCSQTTHVPTFGGGTKVEIK
notes: HuT6-16 VH1 with HuT6-16 VL; also called HuT6-16-1 antibody
As to B3, the EC50 in test [5] is 0.027 µg/mL.

B4: humanized T6-16 antibody HuT6-16-2 (antibody, V domains shown)
VH: QVQLVQSGAEVKKPGASVKVSCKASGYTFTDYNMHWVRQAPGQGLEWIGYIYPYNGGTGYNQRFKSRATMTVDTSTSTAYMELRSLRSDDTAVYYCAREDYGSSPSYAMDYWGQGTMVTVSS
VL: DIVMTQSPLSLPVTPGEPASISCRSSQSLVHGNGNTYLHWYLQKPGQSPQLLIYKVSNRFSGVPDRFSGSGSGTDFTLKISRVEAEDVGVYYCSQTTHVPTFGGGTKVEIK
notes: HuT6-16 VH2 with HuT6-16 VL; also called HuT6-16-2 antibody
In the case of B4, the figures for the half-maximal effective concentration (EC50) in test [6] and in test [5] were 0.049 µg/mL and 0.027 µg/mL, respectively.

The values above are taken from patent publication US20160333110A1 (CHIOME BIOSCIENCE, published 2016).
